PMC6332122, “Identification of RNA Oligonucleotides Binding to Several Proteins from Potential G-Quadruplex Forming Regions in Transcribed Pre-mRNA”

Assays:
alpha-Thrombin = alpha-Thrombin (human, UniProt P00734;P00734 328-363;364-622); assay: SPR; SPR: PBS (137 mM NaCl, 2.7 mM KCl, 8 mM Na2HPO4, 2 mM KH2PO4) pH 7.4, 25 °C, protein on CM5; EMSA: 50 mM Tris-HCl, 100 mM KCl, pH 7.5, room temperature, 1 uM RN
PDGF-BB = PDGF-BB (UniProt P01127 82-190); assay: SPR; SPR: PBS (137 mM NaCl, 2.7 mM KCl, 8 mM Na2HPO4, 2 mM KH2PO4) pH 7.4, 25 °C, protein on CM5; EMSA: 50 mM Tris-HCl, 100 mM KCl, pH 7.5, room temperature, 1 uM RNA, 15% PAGE in TBE; conditions: protein: commercial, chain copies: 2, parallel G4
VEGF165 [1] = target: T1, VEGF165 (UniProt P15692-4 27-191); assay: as above; conditions: protein: commercial, parallel G4
PDGF-AA = PDGF-AA (UniProt P04085 87-211); assay: as above; conditions: protein: commercial, chain copies: 2, parallel G4
VEGF165 [2] = target: T1, VEGF165; assay: SPR; up to 1000 nM RNA; SPR: PBS (137 mM NaCl, 2.7 mM KCl, 8 mM Na2HPO4, 2 mM KH2PO4) pH 7.4, 25 °C, protein on CM5; EMSA: 50 mM Tris-HCl, 100 mM KCl, pH 7.5, room temperature, 1 uM RNA, 15% PAGE in TBE; conditions: protein: commercial
[3] = label: 5' fluorescein for EMSA, none for SPR

T1 sequence (P15692 other isoform, or with tags, fused parts or gaps): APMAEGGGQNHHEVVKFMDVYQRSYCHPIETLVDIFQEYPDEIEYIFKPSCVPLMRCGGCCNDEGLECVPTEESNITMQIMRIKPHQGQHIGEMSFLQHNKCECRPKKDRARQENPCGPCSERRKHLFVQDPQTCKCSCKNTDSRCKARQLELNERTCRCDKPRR
PDGF-BB, sequence (P01127 82-190): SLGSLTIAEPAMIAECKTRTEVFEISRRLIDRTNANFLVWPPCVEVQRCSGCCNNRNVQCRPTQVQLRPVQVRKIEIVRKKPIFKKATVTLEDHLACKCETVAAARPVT

Binder | Kd (PDGF-BB) | Kd (VEGF165 [1]) | Kd (PDGF-AA) | further results
GGGGGCAGGGCGCAGGAGGGAGAGGGGG (structured_RNA) [VEGFA intronic G4_2] | 0.03 µM | 0.031 µM | 0.02 µM | binding result (alpha-Thrombin): no binding
GGGUUUGGUUGGGCACAGGGCACGGG (structured_RNA) [PDGFB intronic G4_3] | 0.06 µM | 0.44 µM | 0.04 µM | –
GGGCACUCGGGUAGGGGGAGGACUAGGG (structured_RNA) [PDGFB intronic G4_2] | 0.03 µM | 0.15 µM | 0.02 µM | –
GGGCGCGGGGUUUGGGGUGGG (structured_RNA) [PDGFB intronic G4_1] | 0.04 µM | 0.13 µM | 0.03 µM | –
UUUUUCAGGGCGCAGGAGGGAGAUUUUU (ssRNA) [VEGFA intronic G4_2 mutant] | – | – | – | binding result (VEGF165 [2]; no parallel G4 by CD): no binding
GGGGGCGGGAGCCAGAGACCAGUGGGCAGGG (structured_RNA) [VEGFA intronic G4_1] | – | – | – | binding result (alpha-Thrombin): no binding; Kd (PDGF-BB; [3]): 0.04 µM; Kd (VEGF165 [1]; [3]): 0.14 µM; Kd (PDGF-AA; [3]): 0.02 µM
GUUUGCGGGAGCCAGAGACCAGUGGGCAGGG (structured_RNA) [VEGFA intronic G4_1 mutant] | – | – | – | binding result (VEGF165 [2]; label: 5' fluorescein for EMSA, none for SPR, unexpected parallel G4 by CD): no binding
GGGGUGCGGGGAGCGGGGAAGGG (structured_RNA) [PDGFA intronic G4_2] | 0.03 µM | 0.2 µM | 0.03 µM | –
GGAGGAGGGGGAGGAGGA (structured_RNA) [VEGFA 5' UTR G4] | 0.11 µM | 0.3 µM | 0.06 µM | binding result (alpha-Thrombin): no binding
GGAUUAGUGUGAGGAGGA (ssRNA) [VEGFA 5' UTR G4 mutant] | – | – | – | binding result (VEGF165 [2]; no parallel G4 by CD): no binding
GGGGAAGGGGAGCUGGGGCGCAGCGGG (structured_RNA) [PDGFA intronic G4_1] | 0.03 µM | 0.49 µM | 0.03 µM | –
